Changes are numbered by the printed parent chain.
T1: human PRLR (Biacore antigen) (human, UniProt P16471 25-234, limits assumed)
T1 construct: The construct injected over captured antibody is not described (a soluble form is likely); also called huPRLR
T1 sequence: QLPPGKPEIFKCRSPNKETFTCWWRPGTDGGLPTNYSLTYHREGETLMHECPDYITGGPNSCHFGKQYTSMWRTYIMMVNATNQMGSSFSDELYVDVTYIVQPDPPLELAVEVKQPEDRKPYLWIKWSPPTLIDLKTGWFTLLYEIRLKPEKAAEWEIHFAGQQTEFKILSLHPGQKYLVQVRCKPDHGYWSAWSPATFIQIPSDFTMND

T2: mouse PRLR on Baf3-mPRLR cells (mouse, UniProt Q08501 20-608)
T2 sequence (looked up): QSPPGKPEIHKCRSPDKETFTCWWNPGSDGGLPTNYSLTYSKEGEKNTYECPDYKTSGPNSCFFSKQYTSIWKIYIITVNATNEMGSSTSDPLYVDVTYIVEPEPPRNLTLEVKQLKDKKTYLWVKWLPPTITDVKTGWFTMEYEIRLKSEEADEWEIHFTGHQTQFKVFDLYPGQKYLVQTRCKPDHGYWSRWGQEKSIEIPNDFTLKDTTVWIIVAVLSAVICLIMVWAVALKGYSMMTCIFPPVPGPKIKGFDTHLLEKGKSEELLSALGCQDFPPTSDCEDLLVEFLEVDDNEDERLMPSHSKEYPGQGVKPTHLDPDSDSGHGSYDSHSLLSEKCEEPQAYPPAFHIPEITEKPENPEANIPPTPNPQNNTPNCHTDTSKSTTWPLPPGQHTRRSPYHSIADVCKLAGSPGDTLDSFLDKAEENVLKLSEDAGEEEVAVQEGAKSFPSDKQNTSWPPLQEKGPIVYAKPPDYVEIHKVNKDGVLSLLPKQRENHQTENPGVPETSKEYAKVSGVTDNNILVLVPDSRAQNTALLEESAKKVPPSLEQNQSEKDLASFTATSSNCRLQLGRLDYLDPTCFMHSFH

T3: human PRLR on cells (human, UniProt P16471 25-622)
T3 sequence: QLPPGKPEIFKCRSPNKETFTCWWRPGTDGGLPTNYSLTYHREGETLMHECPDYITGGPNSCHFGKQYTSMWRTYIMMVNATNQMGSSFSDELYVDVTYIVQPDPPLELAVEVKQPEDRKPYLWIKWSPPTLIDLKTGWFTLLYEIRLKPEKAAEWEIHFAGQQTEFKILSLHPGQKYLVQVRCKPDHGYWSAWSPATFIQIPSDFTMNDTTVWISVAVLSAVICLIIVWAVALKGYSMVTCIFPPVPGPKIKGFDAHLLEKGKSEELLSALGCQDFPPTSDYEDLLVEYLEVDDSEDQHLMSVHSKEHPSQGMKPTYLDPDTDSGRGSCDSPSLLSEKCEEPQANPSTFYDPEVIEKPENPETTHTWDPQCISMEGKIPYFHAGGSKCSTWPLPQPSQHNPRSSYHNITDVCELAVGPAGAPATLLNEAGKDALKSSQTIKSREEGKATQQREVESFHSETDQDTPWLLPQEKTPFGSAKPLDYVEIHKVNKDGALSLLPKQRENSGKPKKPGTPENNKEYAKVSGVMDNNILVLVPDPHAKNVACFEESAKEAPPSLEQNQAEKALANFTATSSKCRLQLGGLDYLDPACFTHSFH

T4: cyno PRLR ECD-his6 protein (cyno)
T4 chain: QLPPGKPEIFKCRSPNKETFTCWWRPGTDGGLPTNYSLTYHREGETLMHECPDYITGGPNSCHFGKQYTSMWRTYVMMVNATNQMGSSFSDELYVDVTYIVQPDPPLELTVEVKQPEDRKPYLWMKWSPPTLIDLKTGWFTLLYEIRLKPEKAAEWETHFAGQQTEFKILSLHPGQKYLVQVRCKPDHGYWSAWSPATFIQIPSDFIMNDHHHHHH

T5: human PRLR ECD-Fc fusion protein (human, UniProt P16471 25-233)
T5 construct: not shown: Fc region (captured by goat anti-human Fc)
T5 sequence: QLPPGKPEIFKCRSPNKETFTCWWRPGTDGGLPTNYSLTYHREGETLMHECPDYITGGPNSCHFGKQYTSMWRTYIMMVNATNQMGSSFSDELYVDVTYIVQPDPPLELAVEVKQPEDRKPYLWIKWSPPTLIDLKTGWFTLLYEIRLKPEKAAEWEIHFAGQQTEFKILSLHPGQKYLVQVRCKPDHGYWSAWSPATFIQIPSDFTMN

B1: LFA102 (antibody, human IgG1, kappa, V domains shown)
VH: EVQLVESGGGLVQPGGSLRLSCAVSGFTFSSYGMSWVRQAPGKRLEWVATVSSGGTYTYYPDSVKGRFTISRDNSKNTLYLQMNSLRAEDTAMYYCARHRGNYYATYYYAMDYWGQGTLVTVSS
VL: DIVLTQSPDSLAVSLGERATINCKASKSVSTSGYTYMHWYQQKPGQPPKLLIYLASNRESGVPDRFSGSGSGTDFTLTISPVQAEDVATYYCQHSGELPPSFGQGTKLEIKR
notes: humanized IgG1 kappa comparator (WO 2008022295)
B2: chAb6 (antibody, human IgG1, kappa, V domains shown)
VH: QVQLQQPGAELVMPGSSVKLSCKASGYTFTTYWMHWVKQRPGQGLEWIGEIDPSDSYSNYNQKFKDKATLTVDKSSSTAYMQLSSLTSEDSAVYYCARNGGLGPAWFSYWGQGTLVTVSA
VL: DIVMTQSQKFMSTTVGDRVSITCKASQYVGTAVAWYQQKPGQSPKLLIYSASNRYTGVPDRFTDSGSGTDFTLTISNLQSEDLADYFCQQYSSYPWTFGGGTKLEIKT
notes: chimeric, murine variable and human G1/kappa constant regions
B3: Ab49 (antibody, human IgG1, kappa, V domains shown)
VH: EVQLVQSGAEVKKPGASVKVSCKASGYTFTDYNIHWVRQAPGQGLEWIGYIYPNNDGTGYNQKFKSRATLTVDNSTSTAYMELRSLRSDDTAVYYCARGDGNYVGDMDYWGQGTTVTVSS
VL: DIQMTQSPSSLSASVGDRVTITCRASENIYSYLAWYQQKPGKAPKLLVYNAKTLAEGVPSRFSGSGSGTDFTLTISSLQPEDFATYYCQHHYATPFTFGQGTKLEIKR
notes: humanized from Ab8; G1; also called Ab3 HC.1a and Ab3 LC.1b
B4: Ab48 (antibody, human IgG1, kappa, V domains shown)
VH: B3 VH
VL: B3 VL with A43P
notes: humanized from Ab8; G1; also called Ab3 HC.1a and Ab3 LC.1a
B5: chAb8 (antibody, human IgG1, kappa, V domains shown)
VH: EVQLQQSGPELVKPGASVKISCKASGYTFTDYNIHWVKQSHGKSLEWIGYIYPNNDGTGYNQKFKSKATLTVDNSSSTAYMEVRSLTSEDSAVYYCARGDGNYVGDMDYWGQGTSVTVSS
VL: DIQMTQSPASLSASVGETVTITCRASENIYSYLAWYQQKQGKPPQLLVYNAKTLAEGVPSRFSGGGSGTQFSLKINSLQPEDFGSYYCQHHYATPFTFGSGTKLEIKT
notes: as for B2
B6: Ab39 (antibody, human IgG1, kappa, V domains shown)
VH: EVQLVQSGAEVKKPGSSVKVSCKASGYTFTSYWIHWVRQAPGQGLEWIGEIDPSDSYTNYNQKFKGRATLTVDKSSSTAYMELSSLRSEDTAVYYCARSFFTNWFAYWGQGTLVTVSS
VL: DVVMTQTPLSLSVTPGQPASISCRSSQSLVHSNGNTYLHWYLQKPGQSPQLLIYKVSNRFSGVPDRFSGSGSGTDFTLKISRVEAEDVGVYFCSQSTHVPFTFGGGTKVEIKR
notes: humanized from Ab7; G1; also called Ab4 HC.1a and Ab4 LC.1a
B7: Ab30 (antibody, human IgG1, kappa, V domains shown)
VH: B6 VH with Y32F, I34M, E50V, S56T, K74E, S99G, F100D, F101Y, T102S, A106T
VL: B6 VL with S28R, F101W
notes: humanized from Ab5; G1; also called Ab2 HC.1a and Ab2 LC.1a
B8: Ab40 (antibody, human IgG1, kappa)
heavy: not shown
light: DVVMTQTPLSLSVTPGQPASISCRSSQSLVHSNGNTYLHWYLQKPGQSPQLLIYKVSNRFSGVPDRFSGSGSGTDFTLKISRVEAEDVGVYYCSQSTHVPFTFGGGTKVEIKRTVAAPSVFIFPPSDEQLKSGTASVVCLLNNFYPREAKVQWKVDNALQSGNSQESVTEQDSKDSTYSLSSTLTLSKADYEKHKVYACEVTHQGLSSPVTKSFNRGEC
notes: humanized from Ab7; G1; also called Ab4 HC.1a and Ab4 LC.1b

Biological target: T1, human PRLR (Biacore antigen)
Assay: SPR simultaneous binding; PRLR held by surface mAb LFA102
Procedure: (§1) Running buffer was HBS-EP+ (10 mM Hepes, pH7.4, 150 mM NaCl, 3 mM EDTA, 0.05% surfactant). Assay was performed at 12° C. using Biacore T200 and CM5 sensor chips with anti-human IgG (Pierce) amine-coupled in all 4 flow cells to ˜2000 RU.
(§2) Separate test mAbs were captured in flowcells 2, 3 & 4 (flowcell 1 was reference, no test mAb). All 4 flowcells were then blocked by injection with isotype control mAb at 50 ug/ml. All 4 flowcells were then injected with antigen or buffer only (buffer only is for double referencing, done for each mAb pair individually). All 4 flowcells were then injected with 2nd test mAb at 10 ug/ml. All 4 flowcells were then regenerated with glycine, pH1.5.

Row | Binder | solution mAb binding, % of PRLR binding
1 | B1 | -2%
2 | B2 | 90%
3 | B3 | -2%
4 | B4 | -2%
5 | B5 | -2%
6 | B6 | 92%
7 | B7 | 103%
8 | B8 | 35%

Biological target: T2, mouse PRLR on Baf3-mPRLR cells
Assay: cell-based or functional assay

Row | Binder | Baf3-mPRLR proliferation IC50
9 | B1 | > 30 µg/mL
10 | B3 | > 30 µg/mL
11 | B4 | > 30 µg/mL
12 | B6 | > 30 µg/mL
13 | B8 | > 30 µg/mL

Biological target: T3, human PRLR on cells
Assay: cell-based or functional assay

Row | Binder | Baf3-hPRLR proliferation IC50 | T47D pPRLR ELISA IC50
14 | B1 | 0.56 µg/mL | 0.069 µg/mL
15 | B2 | 0.28 µg/mL | –
16 | B3 | 0.37 µg/mL | –
17 | B4 | 0.4 µg/mL | –
18 | B5 | 0.3 µg/mL | –
19 | B6 | 0.27 µg/mL | –
20 | B7 | 0.14 µg/mL | –
21 | B8 | 0.4 µg/mL | –

Biological target: cyno PRLR on Baf3-cyPRLR cells (cyno)
Assay: cell-based or functional assay

Row | Binder | Baf3-cyPRLR proliferation IC50
22 | B1 | > 30 µg/mL
23 | B2 | 12.2 µg/mL
24 | B3 | 3.49 µg/mL
25 | B4 | 4.87 µg/mL
26 | B5 | 2.94 µg/mL
27 | B6 | 0.25 µg/mL
28 | B7 | 0.24 µg/mL
29 | B8 | 0.32 µg/mL

Biological target: T1, human PRLR (Biacore antigen)
Assay: SPR simultaneous binding; PRLR held by surface mAb Ab39
Procedure: as §1, §2

Row | Binder | solution mAb binding, % of PRLR binding
30 | B1 | 36%
31 | B2 | -2%
32 | B3 | -2%
33 | B4 | -2%
34 | B5 | -2%
35 | B6 | -2%
36 | B7 | -2%
37 | B8 | -2%

Biological target: T4, cyno PRLR ECD-his6 protein
Assay: ELISA on ECD
Method in brief: (§3)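 PRLR was captured on blocked plates for 1 h, then incubated 1 h with serial antibody dilutions in PBS pH 7.4/0.05% Tween 20 containing 10% Superblock. HRP secondary and TMB gave signal read at 450 nm, and EC50 came from curve fitting.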

Row | Binder | EC50
38 | B1 | 0.154 nM
39 | B2 | 0.072 nM
40 | B3 | 0.361 nM
41 | B4 | 0.236 nM
42 | B5 | 0.191 nM
43 | B6 | 0.46 nM
44 | B7 | 0.1 nM
45 | B8 | 0.862 nM

Biological target: T5, human PRLR ECD-Fc fusion protein
Assay: ELISA on ECD
Method in brief: as §3

Row | Binder | EC50
46 | B1 | 0.053 nM
47 | B2 | 0.103 nM
48 | B3 | 0.0954 nM
49 | B4 | 0.0746 nM
50 | B5 | 0.08 nM
51 | B6 | 0.18 nM
52 | B7 | 0.221 nM
53 | B8 | 4.41 nM

Biological target: T1, human PRLR (Biacore antigen)
Assay: SPR simultaneous binding; PRLR held by surface mAb chAb8
Procedure: as §1, §2

Row | Binder | solution mAb binding, % of PRLR binding
54 | B1 | 1%
55 | B2 | 0%
56 | B3 | -1%
57 | B4 | -1%
58 | B5 | -1%
59 | B6 | 1%
60 | B7 | 6%
61 | B8 | 0%

Reference: patent US20170022281A1 (AbbVie / Abbott, published 2017)
